Test results taken from US20220267469A1 (LIPUM, published 2022).
Numbering of substitutions follows the chain as printed. Each block holds one binder with its values, some of them ahead of it.

Tests used:
[1] = target: T1, Human BSSL (bile salt-stimulated lipase), native (human, UniProt P19835 21-753); test: SPR single cycle kinetics, captured by anti-Fab, Absolute Antibody batch
T1 construct: Native full-length protein purified from human milk (Astra Hässle AB); also called hBSSL; non-biotinylated human BSSL
T1 sequence: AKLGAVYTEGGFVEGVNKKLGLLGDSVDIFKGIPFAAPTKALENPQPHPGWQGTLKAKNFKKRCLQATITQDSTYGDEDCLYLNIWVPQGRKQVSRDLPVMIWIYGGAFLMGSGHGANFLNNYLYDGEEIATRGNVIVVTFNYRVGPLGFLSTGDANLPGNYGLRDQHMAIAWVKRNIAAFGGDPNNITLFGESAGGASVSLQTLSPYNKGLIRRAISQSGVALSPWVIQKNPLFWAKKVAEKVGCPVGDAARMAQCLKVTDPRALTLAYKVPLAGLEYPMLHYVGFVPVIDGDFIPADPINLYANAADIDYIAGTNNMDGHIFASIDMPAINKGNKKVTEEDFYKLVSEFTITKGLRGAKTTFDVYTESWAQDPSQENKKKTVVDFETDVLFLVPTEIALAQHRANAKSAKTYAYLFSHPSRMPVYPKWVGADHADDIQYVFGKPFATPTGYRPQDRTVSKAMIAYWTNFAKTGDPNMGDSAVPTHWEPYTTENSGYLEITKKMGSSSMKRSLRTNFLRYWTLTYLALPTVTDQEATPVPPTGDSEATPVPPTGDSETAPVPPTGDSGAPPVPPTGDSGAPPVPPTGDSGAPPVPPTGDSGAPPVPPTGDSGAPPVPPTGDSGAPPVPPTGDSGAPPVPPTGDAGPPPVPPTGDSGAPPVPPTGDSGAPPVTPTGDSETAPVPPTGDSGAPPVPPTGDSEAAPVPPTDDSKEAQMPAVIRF
Description: (§1) Kinetic parameters of the hIgG4 S228P clones were determined by SPR using BIACORE® T200 (GE Healthcare). An anti-Fab antibody (GE #28958325) was immobilized on a CM5 S sensor chip by primary amine coupling using NHS-EDC chemistry. The hIgG4 antibodies were captured by the anti-Fab antibody, and subsequently, five different concentrations of hBSSL (1:5 dilutions, 0.08-50 nM) or mBSSL (1:2 dilutions, 50-800 nM) were injected over the surface. The sensor chip surface was regenerated with 10 mM glycine-HCl pH 2.1. For binding to human BSSL, single cycle kinetic data was fitted to a 1:1 binding model and kinetic parameters were retrieved using software BlAevaluation. For mouse BSSL, a steady state analysis was performed by plotting the response level at equilibrium against each concentration, and KD values were retrieved by the BlAevalution software.

[2] = target: T2, Biotinylated human BSSL (human, UniProt P19835 21-753, Biotinylated on glycosacarides, 30-40 biotin/BSSL); test: flow cytometry displacement assay; 3.0 ug antibody, 1 ug b-hBSSL
T2 construct: hBSSL biotinylated in house; also called b-hBSSL; human BSSL-biotin
T2 sequence: T1 sequence
Description: (§2) The 28 BSSL-specific hIgG4 antibodies and the five reference antibodies at different concentrations (ranging from 0.5 μg to 3.0 μg per reaction; see Table 10) were added to b-hBSSL (1 μg per reaction, see Table 2) in round-bottom polystyrene tubes, lx PBS (pH 7.4) was added to a final volume of 20 μl and the antibody/b-hBSSL mixtures were incubated for 30 min. at +4° C. to facilitate binding of antibodies to BSSL. Buffy coat (50 μl) was then added to each antibody/b-hBSSL mixture and incubation continued for another 30 min at +4° C. Thereafter, 2 ml of FACS lysing solution (BD Biosciences) was added and the cells were incubated for 10 min at room temperature in order to lyse erythrocytes and fix the white blood cells. The cells were then centrifuged for 5 min. at 200×g, the resulting pellets were washed by adding 2 ml of FACS buffer (1×PBS supplemented with 1% FCS and 0.1% NaN3) and centrifuged again. Finally, the supernatants were discarded and the cells were resuspended in the last drop of liquid, approximately 50 μl.
(§3) 5 μl of BV421-labelled anti-human CD14 (BD Biosciences) and 5 μl of BB515-labelled streptavidin (BD Biosciences) was added to each tube and incubated for 30 min, at +4° C., protected from light. Thereafter, cells were washed twice with FACS buffer, resuspended in 500 μl FACS buffer, and run on BD LSRII flow cytometer (BD Biosciences). Finally, data were analyzed using FlowJo software (BD Biosciences).

[3] = target: T1, Human BSSL (bile salt-stimulated …); test: SPR single cycle kinetics, hIgG4 S228P captured by anti-Fab
Description: (§4) Kinetic parameters of the hIgG4 S228P clones were determined by SPR using BIACORE® T200 (GE Healthcare). Single cycle kinetics was used to measure the affinity of the purified hIgG4 molecules to human and mouse BSSL. An anti-Fab antibody (GE Healthcare, #28958325) was immobilized on a CM5 S sensor chip by primary amine coupling using NHS-EDC chemistry. hIgG4 was captured by the anti-Fab antibody, and subsequently, five different concentrations of hBSSL (1:5 dilutions starting from 50 nM) or mBSSL (1:5 dilutions starting from 500 nM) were injected over the surface. The sensor chip surface was regenerated with 10 mM glycine-HCl pH 2.1. For binding to human BSSL, single cycle kinetic data was fitted to a 1:1 binding model and kinetic parameters were retrieved using software BlAevaluation. For mouse BSSL, a steady state analysis was performed by plotting the response level at equilibrium against each concentration, and KD values were retrieved by the BlAevalution software.

[4] = target: T1, Human BSSL (bile salt-stimulated …); test: cell-based or functional assay
[5] = target: T3, Mouse BSSL, recombinant (mouse, UniProt Q64285 21-599); test: SPR steady state, captured by anti-Fab, Absolute Antibody batch
T3 construct: Bought (R&D Systems, Cat. no 5658-CE); also called mBSSL; murine BSSL
T3 sequence: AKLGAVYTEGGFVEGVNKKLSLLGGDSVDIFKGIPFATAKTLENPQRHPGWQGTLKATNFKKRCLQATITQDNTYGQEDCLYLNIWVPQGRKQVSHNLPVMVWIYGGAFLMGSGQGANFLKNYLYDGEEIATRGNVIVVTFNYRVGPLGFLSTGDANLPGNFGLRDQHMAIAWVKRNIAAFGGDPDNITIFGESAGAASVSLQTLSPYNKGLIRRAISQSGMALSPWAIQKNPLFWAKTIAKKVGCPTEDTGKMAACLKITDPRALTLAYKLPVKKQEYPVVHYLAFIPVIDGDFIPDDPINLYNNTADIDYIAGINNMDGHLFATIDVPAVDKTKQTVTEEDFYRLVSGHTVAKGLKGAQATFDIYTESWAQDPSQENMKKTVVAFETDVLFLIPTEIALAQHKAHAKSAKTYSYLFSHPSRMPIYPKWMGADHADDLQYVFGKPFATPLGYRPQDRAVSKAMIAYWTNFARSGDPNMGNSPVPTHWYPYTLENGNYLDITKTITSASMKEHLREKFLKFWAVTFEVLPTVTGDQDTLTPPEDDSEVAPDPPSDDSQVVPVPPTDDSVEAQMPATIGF
Description: as §1

[6] = target: T2, Biotinylated human BSSL; test: flow cytometry displacement assay; 1.5 ug antibody, 1 ug b-hBSSL
Description: as §2, §3

[7] = target: T1, Human BSSL (bile salt-stimulated …); test: cell-based or functional assay; remark: listed apart in the source
[8] = target: T3, Mouse BSSL, recombinant; test: SPR steady state, hIgG4 S228P captured by anti-Fab
Description: as §4

Kd [1]: 3.8 nM
percentage reduction of b-hBSSL binding to CD14+ monocytes [2]: 61%
Kd [3]: 3.7 nM
BSSL hydrolysis of triglycerides, relative value (no antibody = 100%); 0.19 ug antibody [4]: 105%
BSSL hydrolysis of triglycerides, relative value (no antibody = 100%); 0.38 ug antibody [4]: 123%
BSSL hydrolysis of triglycerides, relative value (no antibody = 100%); 0.75 ug antibody [4]: 121%
BSSL hydrolysis of triglycerides, relative value (no antibody = 100%); 1.5 ug antibody [4]: 113%
BSSL hydrolysis of triglycerides, relative value (no antibody = 100%); 3.0 ug antibody [4]: 119%
BSSL hydrolysis of triglycerides, relative value (no antibody = 100%); 6.0 ug antibody [4]: 126%
Kd [5]: 55 nM
percentage reduction of b-hBSSL binding to CD14+ monocytes [6]: 43%
BSSL hydrolysis of cholesterol esters, relative value (no antibody = 100%); 0.19 ug antibody [7]: 95.7%
BSSL hydrolysis of cholesterol esters, relative value (no antibody = 100%); 0.38 ug antibody [7]: 99%
BSSL hydrolysis of cholesterol esters, relative value (no antibody = 100%); 0.75 ug antibody [7]: 97.6%
BSSL hydrolysis of cholesterol esters, relative value (no antibody = 100%); 1.5 ug antibody [7]: 88.3%
BSSL hydrolysis of cholesterol esters, relative value (no antibody = 100%); 3.0 ug antibody [7]: 93.5%
BSSL hydrolysis of cholesterol esters, relative value (no antibody = 100%); 6.0 ug antibody [7]: 97.7%
Kd [8]: 24 nM
B1: S-SL048-46 hIgG4 S228P (antibody, V domains shown)
VH: QVQLVQSGAEVKKPGASVKVSCKASGYTFTSYNMHWVRQAPGQGLEWMGVINPGDGATSYNQKFQGRVTMTRDTSTSTVYMELSSLRSEDTAVYYCARDYYGSSPLGYWGQGTLVTVSS
VL: DIQMTQSPSSLSASVGDRVTITCRASSSISYLNWYQQKPGKAPKLLIYAASSLASGVPSRFSGSGSGTDFTLTISSLQPEDFATYYCHQRSSSPTFGQGTKLEIKR
notes: also called clone 46; mAb46

Kd [1]: 0.5 nM
percentage reduction of b-hBSSL binding to CD14+ monocytes [2]: 64%
Kd [3]: 0.6 nM
BSSL hydrolysis of triglycerides, relative value (no antibody = 100%); 0.19 ug antibody [4]: 105%
BSSL hydrolysis of triglycerides, relative value (no antibody = 100%); 0.38 ug antibody [4]: 112%
BSSL hydrolysis of triglycerides, relative value (no antibody = 100%); 0.75 ug antibody [4]: 100%
BSSL hydrolysis of triglycerides, relative value (no antibody = 100%); 1.5 ug antibody [4]: 96.2%
BSSL hydrolysis of triglycerides, relative value (no antibody = 100%); 3.0 ug antibody [4]: 106%
BSSL hydrolysis of triglycerides, relative value (no antibody = 100%); 6.0 ug antibody [4]: 108%
Kd [5]: 40 nM
percentage reduction of b-hBSSL binding to CD14+ monocytes [6]: 58%
BSSL hydrolysis of cholesterol esters, relative value (no antibody = 100%); 0.19 ug antibody [7]: 104%
BSSL hydrolysis of cholesterol esters, relative value (no antibody = 100%); 0.38 ug antibody [7]: 107%
BSSL hydrolysis of cholesterol esters, relative value (no antibody = 100%); 0.75 ug antibody [7]: 102%
BSSL hydrolysis of cholesterol esters, relative value (no antibody = 100%); 1.5 ug antibody [7]: 103%
BSSL hydrolysis of cholesterol esters, relative value (no antibody = 100%); 3.0 ug antibody [7]: 107%
BSSL hydrolysis of cholesterol esters, relative value (no antibody = 100%); 6.0 ug antibody [7]: 107%
Kd [8]: 52 nM
B2: S-SL048-116 hIgG4 S228P (antibody, V domains shown)
VH: B1 VH with N61A, Q65K
VL: B1 VL with S27P, L32M, A50T
notes: also called mAb116

Kd [1]: 0.5 nM
percentage reduction of b-hBSSL binding to CD14+ monocytes [2]: 58%
Kd [3]: 0.9 nM
BSSL hydrolysis of triglycerides, relative value (no antibody = 100%); 0.19 ug antibody [4]: 107%
BSSL hydrolysis of triglycerides, relative value (no antibody = 100%); 0.38 ug antibody [4]: 106%
BSSL hydrolysis of triglycerides, relative value (no antibody = 100%); 0.75 ug antibody [4]: 102%
BSSL hydrolysis of triglycerides, relative value (no antibody = 100%); 1.5 ug antibody [4]: 88%
BSSL hydrolysis of triglycerides, relative value (no antibody = 100%); 3.0 ug antibody [4]: 93.9%
BSSL hydrolysis of triglycerides, relative value (no antibody = 100%); 6.0 ug antibody [4]: 119%
Kd [5]: 70 nM
percentage reduction of b-hBSSL binding to CD14+ monocytes [6]: 23%
BSSL hydrolysis of cholesterol esters, relative value (no antibody = 100%); 0.19 ug antibody [7]: 105%
BSSL hydrolysis of cholesterol esters, relative value (no antibody = 100%); 0.38 ug antibody [7]: 103%
BSSL hydrolysis of cholesterol esters, relative value (no antibody = 100%); 0.75 ug antibody [7]: 110%
BSSL hydrolysis of cholesterol esters, relative value (no antibody = 100%); 1.5 ug antibody [7]: 105%
BSSL hydrolysis of cholesterol esters, relative value (no antibody = 100%); 3.0 ug antibody [7]: 106%
BSSL hydrolysis of cholesterol esters, relative value (no antibody = 100%); 6.0 ug antibody [7]: 102%
Kd [8]: 95 nM
B3: S-SL048-118 hIgG4 S228P (antibody, V domains shown)
VH: B1 VH with N61A, Q65K
VL: B1 VL with R24S, S27P, L32M, A50T, A54P
notes: also called clone 118; mAb118
